Laboratory results published in patent US20220049017A1 (KYMAB, published 2022).
Residue numbers refer to the chain shown, from its start. Where two headings read alike, the source gives them in different places.

B1: CL-148219 (antibody, V domains shown)
VH: QVHLQESGPGLVKPSETLSLTCTVSGGSISSYYWSWIRQYPGKGLEWIGYISYSGSSNYNPSLKRRVTISRDTSKNQFSLNLTSVIAADTAVYYCARNLMIRGAYGMDVWGQGTTVTVSS
VL: DTVMTQSPLSLPVTPGEPASISCRSSQSLLHSNGYNYLDWYLQKAGQSPQLLIYLGSNRASGVPDRFSGSVSGTDFTLKISRVEAEDVGIYYCMQALQTPFTFGPGTKVDIK
modifications: NLT motif in heavy chain framework 3 confirmed N-glycosylated by mass spectrometry
notes: Human antibody, captured through anti-human Fc in the SPR assay
B2: CL-148219 QLT mutant (antibody, V domains shown)
VH: B1 VH with N81Q
VL: B1 VL
B3: Alirocumab hIgG4PE (antibody, V domains shown)
VH: EVQLVESGGGLVQPGGSLRLSCAASGFTFNNYAMNWVRQAPGKGLDWVSTISGSGGTTNYADSVKGRFIISRDSSKHTLYLQMNSLRAEDTAVYYCAKDSNWGNFDLWGRGTLVTVSS
VL: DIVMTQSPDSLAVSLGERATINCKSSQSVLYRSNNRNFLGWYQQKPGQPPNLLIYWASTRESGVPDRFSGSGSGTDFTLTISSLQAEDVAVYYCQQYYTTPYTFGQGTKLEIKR
B4: CL-274698 (antibody, V domains shown)
VH: QVQLQESGPGLVKPSGTLSLTCAVSGGSISSSKWWSWVRQPPGKGLEWIGETHYSGSTNYNPSLKSRVTISVDKSKNQFSLKLRSVTAADTAVYYCARVGATENFWGQGTLVTVSS
VL: EIVLTQSPATLSLSPGERATLSCRASQSVFRYLAWYQQKPGQAPRLLIYDASTRATDIPARFSGSGSGTDFTLTISSLEPEDFAVYYCQQRSNWPPTFGQGTKVEIK
notes: Human antibody with a kappa light chain, derived from a PCSK9 knockout mouse
B5: CL-148489 (antibody, V domains shown)
VH: EVQLVESGGGLVQPGRSLRLSCTASGFTFADYVMHWVRQTPGKGLEWVSGISWNSYSINYADSVKGRFTISRDNAQNSLYLQMNSLRAEDTALYFCAKDITYDLLTGYNYNYGLDVWGQGTTVTVSS
VL: DIVMTQTPLSLSVTPGQPASISCRSSQSLLHSDGKTYLYWYLQKPGQPPQLLIYEVSNRFSGVPDRFSGSGSGTDFTLKISRVEAEDVGLYYCMQSIQLPLTFGGGTKVEIK
notes: Human antibody with a kappa light chain
B6: CL-274711 (antibody, V domains shown)
VH: QVQLQESGPGLVKPSQTLSLTCTVSGGSISSGGYYWSWIRQHPGKGLEWIGHIFYSGSTYYNPSLKSRVTISVDTSKNQFSLKLNSVTAADTAVYYCASEGGYYDIPDVWGQGTTVTVSS
VL: B4 VL with F30S, R31N, Y49S, T53N, D57G, V85I, P96L, Q100G
notes: Human antibody with a kappa light chain, generated by immunising a PCSK9 knockout mouse

What was measured:
[1] = target: T1, human PCSK9 D374Y gain-of-function mutant (human, UniProt Q8NBP7 31-692); experiment: cell-based or functional assay
[2] = target: T1, human PCSK9 D374Y gain-of-function …; experiment: cell-based or functional assay; remark: listed apart in the source
[3] = target: T1, human PCSK9 D374Y gain-of-function …; experiment: ProteOn SPR, captured antibody, pH 5.8;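 further: antibodies captured on a GLC chip coated with anti-human Fc, rate constants from a 1:1 Langmuir fit of the sensorgrams, Kd derived from the fitted rates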
Procedure: (§1) The SPR runs were performed using a GLC chip (Bio-Rad) immobilised with anti-human Fc antibodies. The analyte human antibodies were captured on the chip surface at 2 ug/ml. […] The chip surface was regenerated using two injections of 10 mM Glycine pH 1.5 for 160 seconds at 30 μl/min. The sensorgrams were then fitted with a 1:1 model (Langmuir kinetic model) where ka and kd are fitted and KD was calculated by the ProteOn software.

cynomolgus monkey PCSK9 [4] = target: T2, cynomolgus monkey PCSK9 (cynomolgus monkey, UniProt A8T662 31-692 (Macaca nemestrina entry), limits assumed); experiment: ProteOn SPR, captured antibody, pH 5.8;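 further: antibodies captured on a GLC chip coated with anti-human Fc, rate constants from a 1:1 Langmuir fit of the sensorgrams, Kd derived from the fitted rates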
T2 construct: also called Cyno PCSK9; cynoPCSK9
T2 sequence (A8T662 31-692 limits assumed): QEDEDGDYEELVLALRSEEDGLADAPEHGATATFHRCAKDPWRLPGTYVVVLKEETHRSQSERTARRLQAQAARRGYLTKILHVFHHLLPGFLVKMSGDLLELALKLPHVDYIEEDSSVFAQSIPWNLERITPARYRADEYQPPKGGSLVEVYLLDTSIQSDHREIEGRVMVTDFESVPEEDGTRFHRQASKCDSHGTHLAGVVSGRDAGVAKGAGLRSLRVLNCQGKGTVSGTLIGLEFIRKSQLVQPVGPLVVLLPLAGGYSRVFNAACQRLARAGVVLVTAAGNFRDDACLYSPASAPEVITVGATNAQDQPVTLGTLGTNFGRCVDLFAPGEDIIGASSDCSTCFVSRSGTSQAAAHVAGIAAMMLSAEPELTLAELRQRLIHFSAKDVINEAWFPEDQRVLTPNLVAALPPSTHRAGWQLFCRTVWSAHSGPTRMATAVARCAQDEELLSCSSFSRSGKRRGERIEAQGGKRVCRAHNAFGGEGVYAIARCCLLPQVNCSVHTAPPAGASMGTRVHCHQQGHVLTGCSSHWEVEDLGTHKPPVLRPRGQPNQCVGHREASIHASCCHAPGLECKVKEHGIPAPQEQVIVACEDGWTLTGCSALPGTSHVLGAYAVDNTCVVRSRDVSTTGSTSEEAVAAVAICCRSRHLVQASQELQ
Procedure: as §1

mouse PCSK9 [5] = target: T3, mouse PCSK9 (mouse, UniProt Q80W65 35-694, limits assumed); experiment: ProteOn SPR, captured antibody, pH 5.8;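 further: antibodies captured on a GLC chip coated with anti-human Fc, rate constants from a 1:1 Langmuir fit of the sensorgrams, Kd derived from the fitted rates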
T3 construct: also called mPCSK9; PCSK9 mouse
T3 sequence (Q80W65 35-694 limits assumed): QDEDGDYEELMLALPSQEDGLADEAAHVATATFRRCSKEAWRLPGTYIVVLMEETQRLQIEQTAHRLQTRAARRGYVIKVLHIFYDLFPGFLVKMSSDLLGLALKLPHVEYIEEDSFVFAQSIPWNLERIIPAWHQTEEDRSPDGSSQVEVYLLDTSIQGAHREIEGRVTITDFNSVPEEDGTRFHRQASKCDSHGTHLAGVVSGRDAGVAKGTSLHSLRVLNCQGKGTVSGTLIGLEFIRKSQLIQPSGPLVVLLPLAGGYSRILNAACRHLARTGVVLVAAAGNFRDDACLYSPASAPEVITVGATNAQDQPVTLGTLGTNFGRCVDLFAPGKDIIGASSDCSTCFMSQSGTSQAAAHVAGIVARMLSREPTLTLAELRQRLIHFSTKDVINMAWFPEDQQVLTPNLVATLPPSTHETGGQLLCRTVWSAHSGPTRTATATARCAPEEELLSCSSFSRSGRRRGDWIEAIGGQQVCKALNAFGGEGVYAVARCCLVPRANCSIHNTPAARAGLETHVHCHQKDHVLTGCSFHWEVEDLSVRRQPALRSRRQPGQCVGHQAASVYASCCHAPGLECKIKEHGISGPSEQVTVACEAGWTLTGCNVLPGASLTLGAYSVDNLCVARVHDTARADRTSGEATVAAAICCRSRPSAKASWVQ
Procedure: as §1

human PCSK9 variant a [6] = target: T4, human PCSK9 variant a (human, UniProt Q8NBP7 31-692); experiment: ProteOn SPR, captured antibody, pH 5.8;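 further: antibodies captured on a GLC chip coated with anti-human Fc, rate constants from a 1:1 Langmuir fit of the sensorgrams, Kd derived from the fitted rates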
T4 construct: also called Human PCSK9 var A; hPCSK9a
Procedure: as §1

human PCSK9 variant b [7] = target: T5, human PCSK9 variant b (human, UniProt Q8NBP7 31-692); experiment: ProteOn SPR, captured antibody, pH 5.8
T5 construct: also called Human PCSK9 var B; hPCSK9b
Procedure: as §1

human PCSK9 reference [8] = target: T6, human PCSK9 reference (human, UniProt Q8NBP7 31-692); experiment: ProteOn SPR, captured antibody, pH 5.8
Procedure: as §1

[9] = target: T1, human PCSK9 D374Y gain-of-function …; experiment: ProteOn SPR, captured antibody, pH 7.6;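 further: antibodies captured via anti-human Fc on a GLC sensor chip, PCSK9 binding sensorgrams fitted to a 1:1 Langmuir model giving on and off rates, with KD derived from them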
Procedure: as §1

cynomolgus monkey PCSK9 [10] = target: T2, cynomolgus monkey PCSK9; experiment: ProteOn SPR, captured antibody, pH 7.6;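 further: antibodies captured via anti-human Fc on a GLC sensor chip, PCSK9 binding sensorgrams fitted to a 1:1 Langmuir model giving on and off rates, with KD derived from them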
Procedure: as §1

mouse PCSK9 [11] = target: T3, mouse PCSK9; experiment: ProteOn SPR, captured antibody, pH 7.6;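 further: antibodies captured via anti-human Fc on a GLC sensor chip, PCSK9 binding sensorgrams fitted to a 1:1 Langmuir model giving on and off rates, with KD derived from them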
Procedure: as §1

human PCSK9 variant a [12] = target: T4, human PCSK9 variant a; experiment: ProteOn SPR, captured antibody, pH 7.6;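 further: antibodies captured via anti-human Fc on a GLC sensor chip, PCSK9 binding sensorgrams fitted to a 1:1 Langmuir model giving on and off rates, with KD derived from them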
Procedure: as §1

human PCSK9 variant b [13] = target: T5, human PCSK9 variant b; experiment: ProteOn SPR, captured antibody, pH 7.6
Procedure: as §1

human PCSK9 reference [14] = target: T6, human PCSK9 reference; experiment: ProteOn SPR, captured antibody, pH 7.6
Procedure: as §1

[15] = target: T1, human PCSK9 D374Y gain-of-function …; experiment: cell-based or functional assay; remark: listed apart in the source
[16] = target: T1, human PCSK9 D374Y gain-of-function …; experiment: cell-based or functional assay; remark: listed apart in the source
[17] = target: T1, human PCSK9 D374Y gain-of-function …; experiment: ProteOn SPR, captured antibody, pH 5.8; KD cannot be accurately determined
Procedure: as §1

human PCSK9 variant a [18] = target: T4, human PCSK9 variant a; experiment: as above
Procedure: as §1

human PCSK9 variant b [19] = target: T5, human PCSK9 variant b; experiment: as above
Procedure: as §1

human PCSK9 reference [20] = target: T6, human PCSK9 reference; experiment: as above
Procedure: as §1

[21] = target: T1, human PCSK9 D374Y gain-of-function …; experiment: ProteOn SPR, captured antibody, pH 5.8; value is the lower detection limit
Procedure: as §1

human PCSK9 variant b [22] = target: T5, human PCSK9 variant b; experiment: as above
Procedure: as §1

human PCSK9 reference [23] = target: T6, human PCSK9 reference; experiment: as above
Procedure: as §1

human PCSK9 variant a [24] = target: T4, human PCSK9 variant a; experiment: ProteOn SPR, captured antibody, pH 5.8; value is the lower detection limit; pH 5.8
Procedure: as §1

Binder	kon [3]	Kd (cynomolgus monkey PCSK9 [4])	koff (cynomolgus monkey PCSK9 [4])	kon (cynomolgus monkey PCSK9 [4])	Kd (mouse PCSK9 [5])	koff (mouse PCSK9 [5])	kon (mouse PCSK9 [5])	kon (human PCSK9 variant a [6])	kon (human PCSK9 variant b [7])	kon (human PCSK9 reference [8])	Kd [9]	koff [9]	kon [9]	Kd (cynomolgus monkey PCSK9 [10])	koff (cynomolgus monkey PCSK9 [10])	kon (cynomolgus monkey PCSK9 [10])	Kd (mouse PCSK9 [11])	koff (mouse PCSK9 [11])	kon (mouse PCSK9 [11])	Kd (human PCSK9 variant a [12])	further results
B1	908000 M⁻¹ s⁻¹	0.345 nM	0.000336 s⁻¹	975000 M⁻¹ s⁻¹	0.691 nM	0.000701 s⁻¹	1.01e+06 M⁻¹ s⁻¹	908000 M⁻¹ s⁻¹	918000 M⁻¹ s⁻¹	1.02e+06 M⁻¹ s⁻¹	0.245 nM	0.000233 s⁻¹	949000 M⁻¹ s⁻¹	0.296 nM	0.000284 s⁻¹	958000 M⁻¹ s⁻¹	0.52 nM	0.000411 s⁻¹	791000 M⁻¹ s⁻¹	0.216 nM	IC50 (read off the curve) [1]: ~4 nM; IC50 (read off the curve) [2]: ~3 nM; Kd [3]: 0.431 nM; koff [3]: 0.000391 s⁻¹; Kd (human PCSK9 variant a [6]): 0.426 nM; koff (human PCSK9 variant a [6]): 0.000387 s⁻¹; Kd (human PCSK9 variant b [7]): 0.412 nM; koff (human PCSK9 variant b [7]): 0.000378 s⁻¹; Kd (human PCSK9 reference [8]): 0.368 nM; koff (human PCSK9 reference [8]): 0.000374 s⁻¹; koff (human PCSK9 variant a [12]): 0.000234 s⁻¹; kon (human PCSK9 variant a [12]): 1.08e+06 M⁻¹ s⁻¹; Kd (human PCSK9 variant b [13]): 0.215 nM; koff (human PCSK9 variant b [13]): 0.000225 s⁻¹; kon (human PCSK9 variant b [13]): 1.05e+06 M⁻¹ s⁻¹; Kd (human PCSK9 reference [14]): 0.205 nM; koff (human PCSK9 reference [14]): 0.00023 s⁻¹; kon (human PCSK9 reference [14]): 1.13e+06 M⁻¹ s⁻¹
B2	606000 M⁻¹ s⁻¹	0.568 nM	0.000331 s⁻¹	584000 M⁻¹ s⁻¹	1.43 nM	0.000675 s⁻¹	472000 M⁻¹ s⁻¹	602000 M⁻¹ s⁻¹	607000 M⁻¹ s⁻¹	622000 M⁻¹ s⁻¹	0.303 nM	0.000219 s⁻¹	721000 M⁻¹ s⁻¹	0.352 nM	0.000256 s⁻¹	728000 M⁻¹ s⁻¹	0.587 nM	0.000352 s⁻¹	600000 M⁻¹ s⁻¹	0.267 nM	IC50 (read off the curve) [15]: ~2 nM; Kd [3]: 0.753 nM; koff [3]: 0.000456 s⁻¹; Kd (human PCSK9 variant a [6]): 0.712 nM; koff (human PCSK9 variant a [6]): 0.000429 s⁻¹; Kd (human PCSK9 variant b [7]): 0.694 nM; koff (human PCSK9 variant b [7]): 0.000421 s⁻¹; Kd (human PCSK9 reference [8]): 0.667 nM; koff (human PCSK9 reference [8]): 0.000415 s⁻¹; koff (human PCSK9 variant a [12]): 0.000229 s⁻¹; kon (human PCSK9 variant a [12]): 856000 M⁻¹ s⁻¹; Kd (human PCSK9 variant b [13]): 0.257 nM; koff (human PCSK9 variant b [13]): 0.000221 s⁻¹; kon (human PCSK9 variant b [13]): 862000 M⁻¹ s⁻¹; Kd (human PCSK9 reference [14]): 0.272 nM; koff (human PCSK9 reference [14]): 0.000226 s⁻¹; kon (human PCSK9 reference [14]): 833000 M⁻¹ s⁻¹
B3																					IC50 (read off the curve) [1]: ~2 nM
B4	1.53e+06 M⁻¹ s⁻¹	0.0297 nM	3.75e-05 s⁻¹	1.26e+06 M⁻¹ s⁻¹	0.103 nM	0.000137 s⁻¹	1.33e+06 M⁻¹ s⁻¹	1.56e+06 M⁻¹ s⁻¹	1.6e+06 M⁻¹ s⁻¹	1.6e+06 M⁻¹ s⁻¹	0.0689 nM	8.36e-05 s⁻¹	1.21e+06 M⁻¹ s⁻¹	0.0984 nM	0.000108 s⁻¹	1.1e+06 M⁻¹ s⁻¹	0.273 nM	0.000257 s⁻¹	941000 M⁻¹ s⁻¹	0.0998 nM	IC50 (read off the curve) [16]: ~4 nM; Kd [3]: 0.025 nM; koff [3]: 3.83e-05 s⁻¹; Kd (human PCSK9 variant a [6]): 0.0309 nM; koff (human PCSK9 variant a [6]): 4.81e-05 s⁻¹; Kd (human PCSK9 variant b [7]): 0.0262 nM; koff (human PCSK9 variant b [7]): 4.19e-05 s⁻¹; Kd (human PCSK9 reference [8]): 0.0286 nM; koff (human PCSK9 reference [8]): 4.6e-05 s⁻¹; koff (human PCSK9 variant a [12]): 0.000136 s⁻¹; kon (human PCSK9 variant a [12]): 1.37e+06 M⁻¹ s⁻¹; Kd (human PCSK9 variant b [13]): 0.091 nM; koff (human PCSK9 variant b [13]): 0.000127 s⁻¹; kon (human PCSK9 variant b [13]): 1.39e+06 M⁻¹ s⁻¹; Kd (human PCSK9 reference [14]): 0.0929 nM; koff (human PCSK9 reference [14]): 0.000125 s⁻¹; kon (human PCSK9 reference [14]): 1.35e+06 M⁻¹ s⁻¹
B5	1.37e+06 M⁻¹ s⁻¹	0.0924 nM	0.000121 s⁻¹	1.31e+06 M⁻¹ s⁻¹	0.46 nM	0.000632 s⁻¹	1.38e+06 M⁻¹ s⁻¹	1.25e+06 M⁻¹ s⁻¹	1.54e+06 M⁻¹ s⁻¹	1.5e+06 M⁻¹ s⁻¹	0.136 nM	0.000129 s⁻¹	947000 M⁻¹ s⁻¹	0.0506 nM	5.73e-05 s⁻¹	1.13e+06 M⁻¹ s⁻¹	2.69 nM	0.00192 s⁻¹	714000 M⁻¹ s⁻¹	0.175 nM	koff (human PCSK9 variant a [12]): 0.000157 s⁻¹; kon (human PCSK9 variant a [12]): 894000 M⁻¹ s⁻¹; Kd (human PCSK9 variant b [13]): 0.193 nM; koff (human PCSK9 variant b [13]): 0.000164 s⁻¹; kon (human PCSK9 variant b [13]): 848000 M⁻¹ s⁻¹; Kd (human PCSK9 reference [14]): 0.176 nM; koff (human PCSK9 reference [14]): 0.000163 s⁻¹; kon (human PCSK9 reference [14]): 924000 M⁻¹ s⁻¹; Kd [17]: < 0.0073 nM; Kd (human PCSK9 variant a [18]): < 0.008 nM; Kd (human PCSK9 variant b [19]): < 0.00649 nM; Kd (human PCSK9 reference [20]): < 0.00667 nM; koff [21]: ≤ 1e-05 s⁻¹; koff (human PCSK9 variant b [22]): ≤ 1e-05 s⁻¹; koff (human PCSK9 reference [23]): ≤ 1e-05 s⁻¹; koff (human PCSK9 variant a [24]): ≤ 1e-05 s⁻¹
B6		0.164 nM			1.26 nM									0.145 nM			0.889 nM				
